In the supplement of paper PMC10567573:

B1: TRIM15 (parent)
chain: QSSGKILLCPLCQEEEQAETPMAP
B2: TLE6 (parent)
chain: FWHDTLTEQLWRIFAGVHDEKAKP

Variants of: B1
Assay: protein stability index of a GFP-peptide fusion (GPS, HEK-293T) (PSI 1-6); higher = more stable
Details: c terminus: a fixed tail appended
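Also: lentivirally expressed fusions sorted by FACS into six bins by GFP to DsRed ratio, PSI derived from sequencing read proportions per bin multiplied by bin number.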

| Variant | protein stability index |
| --- | --- |
| L11C | 3.28 |
| L11D | 4.98 |
| L11N | 5.01 |
| L11K | 4.54 |
| L11V | 4.09 |
| L11F | 3.42 |
| L11M | 3.78 |
| L11P | 5.27 |
| L11S | 4.7 |
| L11E | 4.72 |
| L11W | 3.52 |
| L11Q | 4.24 |
| L11G | 4.63 |
| L11T | 4.81 |
| L11Y | 3.01 |
| L11H | 3.68 |
| L11R | 4.3 |
| L11I | 3.94 |
| Q1D | 3.99 |
| Q1R | 3.35 |
| Q1Y | 1.58 |
| Q1I | 3.27 |
| Q1P | 2.73 |
| Q1G | 3.8 |
| Q1K | 3.46 |
| Q1W | 3.08 |

| Variant | protein stability index |
| --- | --- |
| Q1F | 1.4 |
| Q1C | 2.72 |
| Q1V | 2.87 |
| Q1E | 3.98 |
| Q1L | 3.13 |
| Q1A | 3.2 |
| Q1T | 3.16 |
| Q1N | 3.06 |
| Q1S | 3.28 |
| Q1M | 2.63 |
| C12H | 4.66 |
| C12K | 4.93 |
| C12P | 5.04 |
| C12Q | 5.09 |
| C12T | 5.43 |
| C12V | 4.62 |
| C12I | 4.68 |
| C12D | 4.87 |
| C12E | 5.46 |
| C12S | 5.23 |
| C12A | 4.22 |
| C12L | 4.18 |
| C12M | 4.86 |
| C12N | 4.99 |
| C12F | 4.81 |
| C12Y | 4.54 |

| Variant | protein stability index |
| --- | --- |
| C12W | 3.75 |
| C9Q | 3.61 |
| C9K | 5.6 |
| C9S | 5.41 |
| C9H | 5.15 |
| C9T | 5.22 |
| C9R | 5.71 |
| C9N | 5.59 |
| C9F | 4.38 |
| C9P | 5.54 |
| C9I | 3.84 |
| C9A | 5.01 |
| C9W | 4.24 |
| C9Y | 4.36 |
| C9M | 4.5 |
| C9L | 4 |
| L7S | 3.39 |
| L7K | 4.51 |
| L7W | 3.29 |
| L7D | 4.35 |
| L7Y | 3.15 |
| L7H | 3.62 |
| L7T | 3.31 |
| L7Q | 3.94 |
| L7F | 3.47 |
| L7C | 3.77 |

| Variant | protein stability index |
| --- | --- |
| L7M | 3.51 |
| L7N | 4.21 |
| L7V | 3.48 |
| L7G | 3.9 |
| L7A | 3.65 |
| L7P | 4.42 |
| L7I | 3.4 |
| S3I | 3.31 |
| S3V | 3.57 |
| S3M | 3.24 |
| S3E | 3.79 |
| S3D | 3.07 |
| S3P | 3.23 |
| S3F | 3 |
| S3R | 3.73 |
| S3K | 3.21 |
| S3A | 3.62 |
| S3T | 3.58 |
| S3C | 2.33 |
| S3N | 3.62 |
| S3H | 2.99 |
| S3W | 2.16 |
| S3Q | 3.63 |
| S3G | 3.34 |
| S3Y | 2.82 |
| S3L | 3.3 |

| Variant | protein stability index |
| --- | --- |
| L8G | 4.08 |
| L8K | 3.83 |
| L8N | 4.45 |
| L8H | 3.96 |
| L8Q | 4.23 |
| L8M | 3.79 |
| L8E | 5.11 |
| L8D | 4.91 |
| L8W | 2.93 |
| L8C | 3.46 |
| L8S | 3.99 |
| L8A | 4.32 |
| L8P | 4.34 |
| L8Y | 3.28 |
| L8T | 3.48 |
| L8R | 3.34 |
| I6K | 4.23 |
| I6C | 3.94 |
| I6E | 3.62 |
| I6F | 3.76 |
| I6N | 4.13 |
| I6P | 4.11 |
| I6T | 3.89 |
| I6H | 3.15 |
| I6D | 4.77 |
| I6M | 3.72 |

| Variant | protein stability index |
| --- | --- |
| I6Q | 3.37 |
| I6G | 3.53 |
| I6A | 4.26 |
| I6S | 3.39 |
| I6R | 3.41 |
| I6L | 3.79 |
| I6Y | 4.04 |
| E14W | 1.73 |
| E14M | 2.14 |
| E14F | 1.73 |
| E14P | 3.39 |
| E14T | 2.46 |
| E14N | 3.32 |
| E14A | 2.43 |
| E14R | 3.3 |
| E14I | 2.54 |
| E14V | 2.75 |
| E14Q | 2.55 |
| E14Y | 2.5 |
| E14K | 3.14 |
| E14D | 3.69 |
| E14C | 2.55 |
| E14G | 3.64 |
| S2K | 3.47 |
| S2R | 3.28 |
| S2N | 2.86 |

| Variant | protein stability index |
| --- | --- |
| S2H | 3.32 |
| S2C | 2.88 |
| S2Y | 2.85 |
| S2L | 2.67 |
| S2T | 3.34 |
| S2F | 2.18 |
| S2E | 4 |
| S2W | 2.38 |
| S2I | 2.62 |
| S2V | 2.56 |
| S2A | 3.52 |
| S2D | 3.78 |
| S2M | 2.79 |
| P10S | 3.56 |
| P10F | 2.13 |
| P10A | 3.35 |
| P10C | 3.77 |
| P10Q | 3.77 |
| P10N | 4.4 |
| P10G | 4.31 |
| P10Y | 2.71 |
| P10H | 3.42 |
| P10E | 4.06 |
| P10I | 1.99 |
| P10M | 2.75 |
| P10V | 1.82 |

| Variant | protein stability index |
| --- | --- |
| K5Q | 3.98 |
| K5T | 3.06 |
| K5D | 3.72 |
| K5M | 2.41 |
| K5G | 3.77 |
| K5L | 2.86 |
| K5H | 3.17 |
| K5C | 3.54 |
| K5A | 3.27 |
| K5F | 2.1 |
| K5N | 3.46 |
| K5P | 3.65 |
| K5E | 4.56 |
| K5V | 2.85 |
| K5R | 3.22 |
| K5S | 3.44 |
| K5Y | 2.36 |
| K5I | 2.17 |
| K5W | 2.45 |
| E15V | 2.35 |
| E15T | 2.77 |
| E15H | 2.98 |
| E15G | 2.9 |
| E15S | 2.75 |
| E15R | 1.81 |
| E15D | 2.97 |

| Variant | protein stability index |
| --- | --- |
| E15P | 2.84 |
| E15K | 3.05 |
| E15F | 2 |
| E15A | 3.17 |
| E15M | 2.25 |
| E15N | 2.28 |
| E15Q | 3.54 |
| E15L | 2.5 |
| E15C | 2.49 |
| G4A | 3.07 |
| G4E | 3.72 |
| G4M | 3.3 |
| G4R | 3.72 |
| G4K | 4.13 |
| G4D | 4.24 |
| G4F | 2.49 |
| G4N | 2.76 |
| G4L | 2.93 |
| G4T | 3.66 |
| G4I | 3.34 |
| G4Q | 3.29 |
| G4S | 2.86 |
| G4W | 2.21 |
| G4C | 4.14 |
| G4V | 2.94 |
| G4Y | 3.4 |

| Variant | protein stability index |
| --- | --- |
| G4H | 2.96 |
| G4P | 3.24 |
| Q13K | 3.85 |
| Q13E | 4.64 |
| Q13D | 4.25 |
| Q13I | 3.26 |
| Q13A | 2.77 |
| Q13M | 2.84 |
| Q13T | 2.69 |
| Q13W | 2.35 |
| Q13F | 2.61 |
| Q13H | 2.95 |
| Q13C | 2.79 |
| Q13S | 3.54 |
| Q13N | 3.65 |
| Q13L | 3.12 |
| Q13P | 4.49 |
| Q13V | 3.91 |
| Q13Y | 3.31 |
| Q13G | 3.46 |
| Q13R | 2.69 |

Variants of: B2
Assay: as above
Details: c terminus: a fixed tail appended

| Variant | protein stability index |
| --- | --- |
| P24V | 2.97 |
| P24M | 1.64 |
| P24I | 3.17 |
| P24Y | 1.58 |
| P24C | 2.95 |
| P24Q | 1.9 |
| P24E | 2.03 |
| P24R | 1.69 |
| P24T | 1.86 |
| P24G | 1.66 |
| P24K | 1.78 |
| P24F | 2.44 |
| P24W | 1.92 |
| P24H | 2.1 |
| P24A | 1.7 |
| P24D | 1.65 |
| P24L | 1.5 |
| P24N | 2.68 |
| P24S | 2.07 |
| K21H | 1.69 |
| K21L | 2.2 |
| K21R | 1.31 |
| K21N | 2.2 |
| K21W | 2.44 |
| K21P | 1.47 |
| K21S | 1.6 |
| K21V | 3.44 |

| Variant | protein stability index |
| --- | --- |
| K21G | 2.06 |
| K21F | 2.72 |
| K21T | 1.85 |
| K21M | 2.85 |
| K21E | 2.08 |
| K21A | 1.69 |
| K21D | 2.6 |
| K21Q | 1.81 |
| K21I | 3.25 |
| K21C | 1.51 |
| K21Y | 3.31 |
| A22H | 1.83 |
| A22V | 1.8 |
| A22S | 2.06 |
| A22K | 1.64 |
| A22P | 2.11 |
| A22L | 1.58 |
| A22Y | 1.37 |
| A22G | 1.88 |
| A22Q | 1.53 |
| A22M | 2.03 |
| A22C | 1.81 |
| A22D | 1.9 |
| A22I | 1.74 |
| A22W | 1.38 |
| A22T | 2.15 |
| A22N | 1.94 |

| Variant | protein stability index |
| --- | --- |
| A22F | 3.14 |
| A22R | 1.84 |
| A22E | 1.75 |
| K23C | 2.13 |
| K23Q | 1.83 |
| K23V | 2.71 |
| K23Y | 1.92 |
| K23R | 1.52 |
| K23L | 1.89 |
| K23H | 2.5 |
| K23M | 2.8 |
| K23N | 2.32 |
| K23T | 2.3 |
| K23A | 1.78 |
| K23P | 1.78 |
| K23E | 1.65 |
| K23F | 3.09 |
| K23D | 1.49 |
| K23S | 2.17 |
| K23W | 2.25 |
| K23I | 1.64 |
| K23G | 1.35 |
| E20Y | 2.01 |
| E20V | 1.9 |
| E20W | 2.86 |
